# Source: PMC12519261
# Where no end group is shown, it is not given here.
# Molecular target: b1b2 domain of NRP-1 (recombinant)
# Test: pull-down; Ni-NTA magnetic agarose beads coated with the b1b2 domain of NRP-1; fluorescent HLPNs incubated 1 h at room temperature with uPA added; 50 mM Tris pH 7.5, 1 M NaCl, 5 mM imidazole, 0.05% NP40; eluted with 400 mM imidazole, fluorescence of the eluate read
binder,measurement,value
"AKRGAR-OH (also: FAM label, site not given here, conjugated to surface of HLPNs) [uPA-cleaved LinTT1 peptide with exposed CendR motif, on HLPNs]",fold increase of binding by uPA treatment (against no uPA),4 fold
